Laboratory results from a protein production outcome set (Wang et al. 2014).

Test: label from the status in PepcDB records
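Also: failed if final PepcDB status was selected cloned or expressed and not failed if soluble or beyond.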

Question: For “MRRSGAASRPASRGARTAYIGAMSRSTPPATTRIVCIRHGESTFNAHHEATGRDPGHIDARLSERGHAQVAAARAALRAIPFELVVTSPLTRALQTTAGIFSDHPARPDVLVEVLHRECQESSCDIGRAASVLAQEFPAFKVGHLPETWWYADGEAGPDGWHVEPRTLFDQRVSGFRDWLRARPERTIGVVGHCTFFYHLTGRWLANCEALDVDLTAEPRPRAYG”, which protein production is on record?
Answer: The protein production was “failed”.

Question: With “MRRTNTFAVRPLSDDDERLLLDLLDASASLWNELNYERRQQFFDGESVWDTADYRKQYVGVLGSATAQQVIRKNKSAWQSFFAARENGEDTAPPGYWGNEDDGRELRTFIRHDLYTLDTGERSRVEIPVGQDLKDEYGLGYHDRLRLEVAGDPKWDGEQGRLEIQYGETDDTFRAFQPVTVPDSRQDSPLASHEAALDVGANNLVACTTTTGEQYLYEGRGLFAHFRETTREIARLQSKLREGRYSSQRIRRLYRKRTRRRDHAQDALVRDLMERLYAEGVDTVYVGDLTDVLSTHWCAEVNAKTHQFWAFRAFIERLSHTAEEYGITVEVRSEADTTRTCPACGEQDDTDRDGDVFRCPCGHEAHADLCASRTFLERQTGKPVGSMARPVRLKWDDHNWSEIPHSPERARPNEKRTNQSTDSQDGKLASVGTA” as the sequence, how does the protein production read?
Answer: Its protein production is “failed”.

Question: For “MRRVTVPTAPPAYADIGYPMSMLPIKSSRAVSGIQQKQEVLPGMDTPSNSMRPVADDNIDHTSHTPNGVASAFILEATVNVISGPKVLMKQIPIWLPLGIADQKTYSFDSTTAAIMLASYTITHFGKANNPLVRVNRLGQGIPDHPLRLLRMGNQAFLQEFVLPPVQLPQYFTFDLTALKLVTQPLPAATWTDETPSNLSGALRPGLSFHPKLRPVLLPGKTGKKGHVSDLTAPDKIQTIVNLMQDFKIVPIDPAKSIIGIEVPELLVHKLTGKKMSQKNGQPIIPVLLPKYIGLDPISPGDLTMVITPDYDDCHSPASCSYLSEK”, which protein production is on record?
Answer: The protein production was “not failed”.

Question: Which protein production does the source give for “MRSFLLGGVRPRDFWSMLKNLALRVDGEGAMDIGAWLRDQGLGQYEGTFRQNDIDPEVLRHLTAEDLIGVGVASVGHRRKLLAAIAALREVAEQPSGAAGFGATPVINPEAERRQLTVMFVDLVESTRLSSRLDPEEMGELLRGYQRAVAGAIARFEGHVAKYMGDGVLAYFGYPRAHEDEAERAVRAGLAAIDAVRKLQPPHGETLEARVGIATGLVVVGELIGEGAAREETVIGETPNLAARLQSVAEPGAVVVASATRQLIGGLFDLAELGFHPLKGFAASIPAWRVLGESSAESRFEAFHGASLTPLVGREHDIGLLLKRWEAVKKGKGRVVLLAGEPGIGKSRLVRALRRRLEGEPHTTVSHYCSPYHQTSPLYPVIRLLERAAGFAAEDPPEVKLSKLEALLTQSIEEVADAAPLLAALLSVPADDRYQPLELSPHRQKKRMLEVLVDQLIGLAARQPILAVYEDVHWADPTSLELLDLVVDRVQDSPVLVLITFRTEFLPPWTRYPHVTVLTLSRLSRRQGAEMVDRLTGRRALPTEVLDQIVAKTDGVPLFVEELTRAILETSLLKAEGDHYALARPLSAISIPATLHESLLARLDRLAPAREVMQVAAAIGREFSHELLVTAAPLQASEVEEALEDLIASGLVFRHGTPPQLTYSFKHALVRDAAYATLVRTKRQRLHAAIATAIEQRFPEMVQTQPELLAQHYAEAGRLEPAVNYWLRAGQAEIARSATTEAISHLTRGLELLEGLPDDAARLRKELELQVALSVALMTAKGWAAPEVGRANARARNLCERLGDKSRLFPVLYGDWVFHVVRAELEAGRKAGEELLRRAQEEREVSAEIVGNRIAGTGAFLRGEIANAREYLERSLALYDPQQHRALAFLFAQDPRVAGLSVLSLTLFALGYPEQAQARSNEALADARELSHSNTLGFALLYGCILSQLRGDWREARDRAGSLITLARAQGSPHFLGAGKILQGWTLGQTGELPAASTKVQEGLASWQMTGARFLVPYFLSLLARVETQSAGAKRALDLLTDALQRARETGERWFEAELHRLTGELMLQLPAFDRAEGEARLQHAVELARGQGADLWELRAATSLARLRIGQNRFGDVHHLLAPLCGKFAEGFATTDLQSAQRLLREAAGFDGAIKSSD” here?
Answer: The protein production was “failed”.

Question: For “MRSLWVFYRTAPDTIVFFDDSPTARFSTVVAFYNHRTGGPMSFAQRDPIGELSLLTHIFIKYREPYVTDGQCRVIVQSKRPIMSSIEQYSQKPFYAHKGTDESSQDTETTEDIVVKEGKHFWIEFDPPEEPFTDTSRRVLRLVRNVEQHRQPGYCTFSKSLFVERNGNDIFKPYRLYPTHNFEDKYFSSAEVKESASLYDLSSLKKNEIRPTLERYEEALKAEVLTPLRNALIPCMVEVYRREIGFESEPDKSLRNASYSSVLSWGSTLRFTLRLWDRIVSGQPLAQVKSEDWFEGTFEKVPSAVSQGARSAIRYYVSDKKLSRDYVLAQALPVYFKWAACREAIQSKLHEQKTDFFAVDTELDKTHVLSGDNVPAKIKKLLEEAAARRKDALSENTIQAYQHAIDHFKSFCERHGPKALPASPETLIAYFEHLAQNGYAESTIRKRRSAIRFLHERSMNESPTTSESVRRYFDDLRKTIPESRGHGQKDPILFHHLHQMSFDEEELSDLRDRAILYIGVATGLRDSGLIGLEMRDIFEKEGGVVYRIRDPKGEGDPGPERVSVPHEVPALTPSPNEALTAWIEAAGIESGAVFRSVDQYGNVGGDDGLSSGSISKDIVKPWMKSIGEDPSEYSCHSLRAGFVTQAILDGITEPRIAAQSRHKSIEALREYERPTNDMKNHMLKEMG”, which protein production is on record?
Answer: The protein production was “failed”.

Question: For “MRSMLQDSLVLLDYLRGMLLHNEELWLLLFPVMIIIELPLYLLVLTGIFRWSYMREEPELKRFPSVSFVITCYGEGEAIGITIDTLVEQIYPGHIEILAVVDGAVQNQDTYKAALNGERRHTGVRNRKVRVLPKWQRGGRVSTLNAGLSMASGEIVINVDGDTSFDNDMVFTMMKQFADKNVIASGGALRVRNHNANLLTKMQSLEYMLSMQAGKTGMATWGVLNNISGAFGAFRKNLLKQVGGWDTHTAEDLDLTMRLKQYKCRYPDNKLAFSTHSIGHTDVPDTLKGLVLQRLRWDGDLLFLFLRKHNEGLSPRLLGWGNFVFTLAYGVIQNVLLPLLVVIFSVYMVIVYPLKFVLALMLMLYFVYLFLSALIFVVYIGLVSERKKEDLKSVKWLFLYPVYQFFMRLITAFSMVNEVVRRSHEESSMAPWWVLKRGKKF”, which protein production is on record?
Answer: The protein production was “failed”.

Question: Which protein production does the source give for “MRSTEVGRVVEDFIVLPPTPKSKWKLSDFELLHKLGGGNYGDVHLASVKDCNFVCALKRLSIKKLADFDIATQLRREIEIAFNTRHKYLLRTYAYFFDETDIYLIMEPCSNGMLYTELNRVKCFAPPTAARYVAQLAEALLYLHQHHILHRDIKPENILLDHNNNIKLADFGWSVHDPDNRRKTSCGTPEYFPPEIVGRQAYDTSADLWCLGIFCYELLVGKTPFVGKDTDQICKNIHSMHFKIPENIPSEAKDLIANLLLRDGSRRLALHRVVNHQFLLKYYYLPNNLQPPTGKRPRLDAEPTAGKEN” here?
Answer: Its protein production is “failed”.

Question: For “MRTDDSALKNLGKGRESTTLEMKHRELCSGKTIDLGKKMRRALVLDNIRVQSLQLKIKAMTSSTTEQSVSETQIPLTSGIKLESLNYIVTVELGGKNMSLIVDTGSDLTWVQCQPCRSCYNQQGPLYDPSVSSSYKTVFCNSSTCQDLVAATSNSGPCGGNNGVVKTPCEYVVSYGDGSYTRGDLASESILLGDTKLENFVFGCGRNNKGLFGGSSGLMGLGRSSVSLVSQTLKTFNGVFSYCLPSLEDGASGSLSFGNDSSVYTNSTSVSYTPLVQNPQLRSFYILNLTGASIGGVELKSSSFGRGILIDSGTVITRLPPSIYKAVKIEFLKQFSGFPTAPGYSILDTCFNLTSYEDISIPIIKMIFQGNAELEVDVTGVFYFVKPDASLVCLALASLSYENEVGIIGNYQQKNQRVIYDTTQERLGIVGENCRV”, which protein production is on record?
Answer: Its protein production is “failed”.

Question: With “MRTIYVIGIGTGSPEFLTLQAISGLRHAQAIVALDKGEQKSDLLALRQKIVDTHAPGTPIYAVTDPERDRNPDNYEEEVRRWHAERAHLLASTIRERTPDDGAVAFLVWGDPSLYDSTLRIIEHMRNLEDLHADVKVIPGITAVQVLTAEHGILINRIGEAIHITTGRNLPETSAKDRRNCVVMLDGKTAWQDVATEHTYMWWGAFLGTEQQVLRKGYVHEIGAQVAELKQQLRTEHGWIMDTYLLRELD” as the sequence, how does the protein production read?
Answer: Its protein production is “not failed”.

Question: With “MRTLKVQALWDGEAGVWVAESDDVPGLATEAATLEELLAKLAVMVPELLEENGVALELPVELRLEATRPLVFS” as the sequence, how does the protein production read?
Answer: Its protein production is “not failed”.

Question: Which protein production does the source give for “MRTLNTSAMDGTGLVVERDFSVRILTACFLSLLILSTLLGNTLVCAAVIRFRHLRSKVTNFFVISLAVSDLLVAVLVMPWKAVAEIAGFWPFGSFCNIWVAFDIMCSTASILNLCVISVDRYWAISSPFRYERKMTPKAAFILISVAWTLSVLISFIPVQLSWHKAKPTSPSDGNATSLAETIDNCDSSLSRTYAISSSVISFYIPVAIMIVTYTRIYRIAQKQIRRIAALERAAVHAKNCQTTTGNGKPVECSQPESSFKMSFKRETKVLKTLSVIMGVFVCCWLPFFILNCILPFCGSGETQPFCIDSNTFDVFVWFGWANSSLNPIIYAFNADFRKAFSTLLGCYRLCPATNNAIETVSINNNGAAMFSSHHEPRGSISKECNLVYLIPHAVGSSEDLKKEEAAGIARPLEKLSPALSVILDYDTDVSLEKIQPITQNGQHPT” here?
Answer: The protein production was “failed”.

Question: With “MRVAIAGAGAVGRSIAGELLENGHEVLLIDKAPTAISVERVPMAEWLLADACEITSLDEAALQRCNVVIAATGDDKVNLVVSLLAKTEYGVPRVVARVNNPKNEWLFNESWGVDVAVSTPRLMSALVEEAVSVGDLVRLLRFSHGDANLVELTLPEESALAGTQVGDVQWPEDTSLVTIIRGTRVLTPSREDSLEAGDELLFVAAQAREEQLEDLLSARRQPDGTL” as the sequence, how does the protein production read?
Answer: Its protein production is “failed”.

Question: For “MRVAVVGATGAVGREILKVLEARNFPLSELRLYASPRSAGVRLAFRGEEIPVEPLPEGPLPVDLVLASAGGGISRAKALVWAEGGALVVDNSSAWRYEPWVPLVVPEVNREKIFQHRGIIANPNCTTAILAMALWPLHRAFQAKRVIVATYQAASGAGAKAMEELLTETHRFLHGEAPKAEAFAHPLPFNVIPHIDAFQENGYTREEMKVVWETHKIFGDDTIRISATAVRVPTLRAHAEAVSVEFARPVTPEAAREVLKEAPGVEVVDEPEAKRYPMPLTASGKWDVEVGRIRKSLAFENGLDFFVVGDQLLKGAALNAVQIAEEWLKGA”, which protein production is on record?
Answer: The protein production was “not failed”.

Question: Which protein production does the source give for “MRVCAVVVTYNRKDLLVECLEALRRQTGPLDAIYIIDNASTDGTPELLRSRGYRDGAVIENPLDGSEIVIRYVRLPVNTGGAGGFHEGVKRAFHDGYDWIWLMDDDAEPLPDSLQGLLRYADDDTAALANLKVSPDGRPQYIHRGFFDFDSFGTFVRPVTEDDLREETLEIDHASFVGILINSDSVREIGFPRKEFFLHYDDVEYCLRLRSTGKIILVPGSLILHKEAAERGNLTKGLFGREIPVVPYDKLWLRYYGVRNSIWLRRKEMGRARLFIFMVRAILLSVAAQIITGIREKPFRRVRFILSAYSDGLRGRFDNEKPRRILYG” here?
Answer: Its protein production is “failed”.

Question: For “MRVFLCGPLASDGLRQRVLGSAPDGVPARLADHALGAAGATVSPMPAPGASVAGLVMELGAEAGARLLHYQTATGHEARTLAVAGAPALVFFAPPEGLEPWDEAAWGALWGPIVVATAGDVMALWPEVPAERIARRYRLMLVQGASRVRAAADPGPARRRHAAQPGDVRIVRRSQPYANFFAVEEYDLSFRSFGGGMSPTLNRAVFISGDAVTVVPYDPVRDRVLLIEQFRPGPLGRGDAQPWLLEPIAGRVDPGETPEAAARREAVEEAGLDLGALLPVASYYPTPAAKAEYLYSYVALAQLDDGIEGIFGMEGEGEDIRGHLMSFDEMMALIRSGEICNGPLLLTALWLDRERPRLRGE”, which protein production is on record?
Answer: The protein production was “failed”.

Question: For “MRVGIKVLGCPKNEADCEVLAGVLREGGHEIVFDVKDADVVVLDTCAFIEDAKRESIDEIFSFVDAKDQYGYKLVVKGCLVQRYYEELKKEIPEVDQWIGVADPEEIANAIENGTDLVPDQPETVYRYRKRIDLEERPYAYVKISDGCDRGCTFCSIPSFKGSLRSRSIEDITREVEDLLKEGKKEIILVAQDTTSYGIDLYRKQALPDLLRRLNSLNGEFWIRVMYLHPDHLTEEIISAMLELDKVVKYFDVPVQHGSDKILKLMGRTKSSEELKKMLSSIRERFPDAVLRTSIIVGFPGETEEDFEELKQFVEEIQFDKLGAFVYSDEEGTVAFNLKEKVDPEMAKRRQEELLLLQAEISNSRLDRFVGKKLKFLVEGKEGKFLVGRTWTEAPEVDGVVFVRGKGKIGDFLEVVIKEHDEYDMWGSVILEHHHHHH”, which protein production is on record?
Answer: Its protein production is “not failed”.
